Consider 75 variants from article PMC11969024 (2025).

The labels stand for the following.
B1: peptide HD2 (from tick evasin EVA4) / CXCL14 (biotinylated, synthetic) (parent complex)
chain 1: EEDDYTAYAPLTCYFT
chain 2: SKCKCSRKGPKIRYSDVKKLEMKPKYPHCEEKMVIITTKSVSRYRGQEHCLHPKLQSTKRFIKWYNAWNEKRRVYEE

The variants in the assay derive from B1.
For the variant chain 1 T16G, the enrichment is 2.47 log2 (difference from the parental peptide). For chain 1 T16S the value was -5.85 log2 (difference from the parental peptide); for chain 1 T16I, 0.982 log2 (difference from the parental peptide); for chain 1 T16W, 2.14 log2 (difference from the parental peptide). Take chain 1 T16Q: the enrichment was -5.09 log2 (difference from the parental peptide).

Turning to chain 1 T16N, the enrichment is -3.97 log2 (difference from the parental peptide).

With chain 1 Y8L, the enrichment was 0.358 log2 (difference from the parental peptide). For chain 1 Y8W the value was 0.649 log2 (difference from the parental peptide); for chain 1 Y8I, -6.06 log2 (difference from the parental peptide). With chain 1 Y8N, the enrichment is -4.8 log2 (difference from the parental peptide). With chain 1 Y8P, the enrichment was -6.13 log2 (difference from the parental peptide).

Take chain 1 L11I: the enrichment was 0.571 log2 (difference from the parental peptide). For chain 1 L11N the value was -0.349 log2 (difference from the parental peptide); for chain 1 L11C, 0.549 log2 (difference from the parental peptide). For chain 1 L11R the value was -4.9 log2 (difference from the parental peptide); for chain 1 L11D, 0.52 log2 (difference from the parental peptide); for chain 1 E2V, -0.0348 log2 (difference from the parental peptide). For chain 1 E2D the value was 0.377 log2 (difference from the parental peptide). chain 1 E2M: the enrichment was -6.07 log2 (difference from the parental peptide). For the variant chain 1 E2S, the enrichment is 0.196 log2 (difference from the parental peptide). For the variant chain 1 P10A, the enrichment was 2.1 log2 (difference from the parental peptide). For chain 1 P10L the value was 0.0771 log2 (difference from the parental peptide); for chain 1 P10D, -1.54 log2 (difference from the parental peptide). As for chain 1 P10V, the enrichment was 0.331 log2 (difference from the parental peptide). Regarding chain 1 D4P, the enrichment was 1.82 log2 (difference from the parental peptide). For chain 1 D4I the value was 0.635 log2 (difference from the parental peptide); for chain 1 D4E, -4.2 log2 (difference from the parental peptide); for chain 1 D4M, -6.89 log2 (difference from the parental peptide). For chain 1 A7T the value was -5.45 log2 (difference from the parental peptide). For chain 1 A7N the value was 2.93 log2 (difference from the parental peptide); for chain 1 A7M, -3.2 log2 (difference from the parental peptide); for chain 1 A7Q, -3.16 log2 (difference from the parental peptide). Regarding chain 1 A7S, the enrichment was 1 log2 (difference from the parental peptide). For chain 1 A7R the value was 1.24 log2 (difference from the parental peptide); for chain 1 A7G, 1.97 log2 (difference from the parental peptide).

For the variant chain 1 A7D, the enrichment was 3.18 log2 (difference from the parental peptide). Turning to chain 1 A7I, the enrichment is 0.79 log2 (difference from the parental peptide). For chain 1 C13S the value was -3.41 log2 (difference from the parental peptide); for chain 1 C13A, -6.89 log2 (difference from the parental peptide). Regarding chain 1 C13N, the enrichment was -4.88 log2 (difference from the parental peptide). Consider chain 1 C13D, for which the enrichment was -5.83 log2 (difference from the parental peptide). For chain 1 C13G the value was -8.69 log2 (difference from the parental peptide). For chain 1 T12R, the enrichment is -7.34 log2 (difference from the parental peptide). For chain 1 T12H the value was -1.2 log2 (difference from the parental peptide); for chain 1 T12S, -7.83 log2 (difference from the parental peptide); for chain 1 T12D, -6.91 log2 (difference from the parental peptide). For chain 1 T12A the value was -6.47 log2 (difference from the parental peptide); for chain 1 T12I, 3.47 log2 (difference from the parental peptide). For chain 1 A9V the value was -2.17 log2 (difference from the parental peptide). For chain 1 A9W, the enrichment was 1.99 log2 (difference from the parental peptide). For chain 1 A9Q the value was 3.77 log2 (difference from the parental peptide); for chain 1 A9D, -5.49 log2 (difference from the parental peptide). For chain 1 A9N the value was 4.16 log2 (difference from the parental peptide); for chain 1 A9S, -1.59 log2 (difference from the parental peptide). Regarding chain 1 A9E, the enrichment is -4.09 log2 (difference from the parental peptide). For chain 1 A9H the value was -6.47 log2 (difference from the parental peptide); for chain 1 Y5F, -5.86 log2 (difference from the parental peptide); for chain 1 Y5W, -1.34 log2 (difference from the parental peptide). For chain 1 T6K the value was -5.43 log2 (difference from the parental peptide); for chain 1 T6Q, 0.84 log2 (difference from the parental peptide). Regarding chain 1 T6F, the enrichment was 0.389 log2 (difference from the parental peptide). For chain 1 T6D the value was 3.46 log2 (difference from the parental peptide). For chain 1 E1Y the value was 0.958 log2 (difference from the parental peptide); for chain 1 E1T, 0.267 log2 (difference from the parental peptide). For chain 1 E1Q the value was -2.86 log2 (difference from the parental peptide); for chain 1 F15A, -5.37 log2 (difference from the parental peptide); for chain 1 F15Q, 1.93 log2 (difference from the parental peptide). Turning to chain 1 F15M, the enrichment is 0.3 log2 (difference from the parental peptide). For chain 1 D3T the value was -5.87 log2 (difference from the parental peptide). For chain 1 D3I the value was -8.12 log2 (difference from the parental peptide). For chain 1 D3F the value was -3.03 log2 (difference from the parental peptide); for chain 1 Y14E, -0.269 log2 (difference from the parental peptide); for chain 1 Y14C, -4.99 log2 (difference from the parental peptide). As for chain 1 Y14V, the enrichment was -3.62 log2 (difference from the parental peptide). For chain 1 Y14H the value was 2.79 log2 (difference from the parental peptide).
